Here are results for 30 molecules from patent US20230071371A1 (Scripps Research, published 2023).

Common to all, as to assay: cell-based or functional assay
One assay concerns the target human GLP-1R (human, UniProt P43220 24-463).
The target of another assay is T1, human GIPR (human, UniProt P48546 22-466).
T1 sequence (looked up): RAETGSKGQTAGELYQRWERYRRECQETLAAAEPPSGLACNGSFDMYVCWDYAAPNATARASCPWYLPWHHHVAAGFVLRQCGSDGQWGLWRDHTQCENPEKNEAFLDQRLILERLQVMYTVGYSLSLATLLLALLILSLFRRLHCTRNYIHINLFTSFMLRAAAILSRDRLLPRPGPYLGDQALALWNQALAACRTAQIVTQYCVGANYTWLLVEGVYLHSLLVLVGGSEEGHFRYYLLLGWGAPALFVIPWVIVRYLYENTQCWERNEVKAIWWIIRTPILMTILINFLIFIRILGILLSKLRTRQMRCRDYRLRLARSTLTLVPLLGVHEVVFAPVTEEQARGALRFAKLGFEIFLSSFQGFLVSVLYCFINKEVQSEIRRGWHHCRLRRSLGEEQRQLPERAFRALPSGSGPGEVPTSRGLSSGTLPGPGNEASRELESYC

In assay [1] the target is T2, GPR10 (UniProt P49683 1-370, limits assumed).
T2 sequence (looked up): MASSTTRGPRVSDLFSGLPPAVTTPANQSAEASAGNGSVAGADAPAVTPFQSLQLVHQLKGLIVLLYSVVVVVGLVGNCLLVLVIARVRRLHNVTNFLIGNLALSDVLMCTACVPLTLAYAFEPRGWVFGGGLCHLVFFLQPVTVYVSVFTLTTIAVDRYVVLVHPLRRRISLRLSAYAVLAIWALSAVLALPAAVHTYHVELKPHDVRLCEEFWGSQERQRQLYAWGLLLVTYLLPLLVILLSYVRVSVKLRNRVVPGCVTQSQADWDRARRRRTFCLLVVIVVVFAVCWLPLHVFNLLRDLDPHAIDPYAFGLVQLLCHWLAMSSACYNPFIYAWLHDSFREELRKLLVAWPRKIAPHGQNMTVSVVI

For assay [2], the target named is T2, GPR10. The source holds these as a separate data set.

Like-named read-outs stand apart in the source and are kept apart here. Bridges are numbered along the chain shown (N, C = ends). Where no end group is shown, it is not given here. [ ]: non-standard residue; d: D form. NMeR = CN[C@@H](CCCNC(=N)N)C(=O)O; staple K20 = not defined here; staple K4 = not defined here; staple K5 = not defined here; staple K6 = not defined here; staple K7 = not defined here; staple K8 = not defined here; staple K9 = not defined here; Nle = CCCC[C@H](N)C(=O)O; L1 = not defined here; L3 = not defined here; L4 = not defined here; L5 = not defined here; Aib = CC(C)(N)C(=O)O

With Y[Aib]EGTFTSDYSIYKDKQAA[Aib]KFKNWLKAGGPSSGAPPPS (linker 23-27 via staple K8; reading uncertain) [Conjugate 156], the “EC50 cAMP 0% FBS” value in the assay with human GLP-1R worked out at 14.6 nM; in the assay with human GIPR, 2.82 nM. Turning to Y[Aib]EGTFTSDYSIYLDKKAA[Aib]EFVKWLLAGGPSSGAPPPS (linker 17-24 via staple K9; reading uncertain) [Conjugate 143], the “EC50 cAMP 0% FBS” value turned out to be 0.068 nM with human GLP-1R and 0.002 nM with human GIPR.

Consider SRAHQCS[Nle]ETRTCDINPAWYTGRGIRPVG[NMeR]F-NH2 (cysteine pairing not given here) [SEQ ID NO 102], for which, in the assay with GPR10 [1], the “GPR10 EC50” value worked out at 100 nM. Take Y[Aib]EGTFTSDYSIYKDKQAA[Aib]KFKNWLKAGGPSSGAPPPS (linker 23-27 via staple K20; reading uncertain) [Conjugate 157]: the “EC50 cAMP 0% FBS” value in the assay with human GLP-1R was 16.4 nM. Regarding Y[Aib]EGTFTSDYSIYKDKQAA[Aib]KFKNWLKAGGPSSGAPPPS (linker 23-27 via staple K6; reading uncertain) [Conjugate 155], the results for the “EC50 cAMP 0% FBS” value with human GLP-1R and in the assay with human GIPR were 4.08 nM and 1.66 nM, respectively. Consider SRAHQCS[Nle]ETRTCDINPAWYTGRGIRPVG[NMeR]F-NH2 (linker 6-13 via L3; reading uncertain) [Conjugate 258], for which the “GPR10 EC50” value in the assay with GPR10 [1] stood at 10 nM.

On to Y[Aib]EGTFTSDYSIYLDKKAA[Aib]EFVKWLLAGGPSSGAPPPS (linker 17-24 via staple K7; reading uncertain) [Conjugate 150], for which the figures for the “EC50 cAMP 0% FBS” value with human GLP-1R and with human GIPR were 0.06 nM and 0.02 nM, respectively. As to Y[Aib]EGTFTSDYSIYLDKKAA[Aib]EFVKWLLAGGPSSGAPPPS (linker 17-24 via staple K20; reading uncertain) [Conjugate 149], the “EC50 cAMP 0% FBS” value with human GLP-1R amounted to 0.05 nM; in the assay with human GIPR it was 0.01 nM.

As for Y[Aib]EGTFTSDYSIYKDKQAA[Aib]KFVNWLLAGGPSSGAPPPS (linker 14-21 via staple K6; reading uncertain) [Conjugate 151], the “EC50 cAMP 0% FBS” value is 0.03 nM with human GLP-1R and 0.02 nM with human GIPR. Taken in the same sequence, the figures for Y[Aib]EGTFTSDYSIYLDKKAQ[Aib]AFVKWLIAQGPSSGAPPPS (linker 17-24 via staple K4; reading uncertain) [Conjugate 146] were 0.11 nM and 0.03 nM.

In the case of Y[Aib]EGTFTSDYSIYKDKQAA[Aib]KFVNWLLAGGPSSGAPPPS (linker 14-21 via staple K20; reading uncertain) [Conjugate 153], the figures for the “EC50 cAMP 0% FBS” value in the assay with human GLP-1R and in the assay with human GIPR were 0.05 nM and 0.01 nM, respectively. Take SRAHQCSMETRTCDINPAWYTGRGIRPVGRF-NH2 (linker 6-13 via L3; reading uncertain) [Conjugate 236]: the “GPR10 EC50” value with GPR10 [2] and in the assay with GPR10 [1] was 13 nM each time. With SRAHQCS[Nle]ETRTCDINPAWYTGRGIRPVG[NMeR]F-NH2 (linker 6-13 via L1; reading uncertain) [Conjugate 254], the “GPR10 EC50” value with GPR10 [1] is 100 nM. In the case of Y[Aib]EGTFTSDYSIYKDKQAA[Aib]KFKNWLKAGGPSSGAPPPS (linker 23-27 via staple K4; not fully specified; reading uncertain) [Conjugate 145], in the assay with human GLP-1R, the “EC50 cAMP 0% FBS” value came to 61.4 nM.

As to Y[Aib]EGTFTSDYSIYLDKKAA[Aib]EFVKWLLAGGPSSGAPPPS (linker 17-24 via staple K8; reading uncertain) [Conjugate 148], the “EC50 cAMP 0% FBS” value was 0.46 nM in the assay with human GLP-1R and 0.03 nM in the assay with human GIPR. The corresponding values for Y[Aib]EGTFTSDYSIYKDKQAA[Aib]KFVNWLLAGGPSSGAPPPS (linker 14-21 via staple K9; reading uncertain) [Conjugate 144] are 0.012 nM and 0.0022 nM.

For the molecule Y[Aib]EGTFTSDYSIYLDKKAA[Aib]EFVKWLLAGGPSSGAPPPS (linker 17-24 via staple K6; reading uncertain) [Conjugate 147], the “EC50 cAMP 0% FBS” value in the assay with human GLP-1R was 0.07 nM; in the assay with human GIPR, 0.02 nM. For SRAHQCS[Nle]ETRTCDINPAWYTGRGIRPVG[NMeR]F-NH2 (linker 6-13 via L5; reading uncertain) [Conjugate 266], in the assay with GPR10 [1], the “GPR10 EC50” value came to 1100 nM.

On to SRAHQCSMETRTCDINPAWYTGRGIRPVGRF-NH2 (linker 6-13 via L4; reading uncertain) [Conjugate 237], for which the “GPR10 EC50” value with GPR10 [2] and with GPR10 [1] was 80 nM in each case. Consider SRAHQCSMETRTCDINPAWYTGRGIRPVGRF-NH2 (linker 6-13 via L5; reading uncertain) [Conjugate 238], for which the “GPR10 EC50” value with GPR10 [2] and with GPR10 [1] was 260 nM in each case.

In the case of SRAHQCSMETRTCDINPAWYTGRGIRPVGRF-NH2 (linker 6-13 via L1; reading uncertain) [Conjugate 226], the “GPR10 EC50” value with GPR10 [2] and in the assay with GPR10 [1] was 20 nM throughout.

Turning to Y[Aib]EGTFTSDYSIYKDKQAA[Aib]KFVNWLLAGGPSSGAPPPS (linker 14-21 via staple K7; reading uncertain) [Conjugate 154], the “EC50 cAMP 0% FBS” value with human GLP-1R came to 0.03 nM; with human GIPR, 0.02 nM. The corresponding values for Y[Aib]EGTFTSDYSIYKDKQAA[Aib]KFKNWLKAGGPSSGAPPPS (linker 23-27 via staple K9; reading uncertain) [Conjugate 159] are 1180 nM and 0.0312 nM. Take SRAHQCS[Nle]ETRTCDINPAWYTGRGIRPVG[NMeR]F-NH2 (linker 6-13 via L4; reading uncertain) [Conjugate 262]: the “GPR10 EC50” value with GPR10 [1] is 280 nM. For SRAHQHSMETRTPDINPAWYTGRGIRPVGRF-NH2 [SEQ ID NO 107], the “GPR10 EC50” value in the assay with GPR10 [2] and with GPR10 [1] was 12 nM each time. Regarding Y[Aib]EGTFTSDYSIYKDKQAA[Aib]KFKNWLKAGGPSSGAPPPS (linker 23-27 via staple K5; reading uncertain) [Conjugate 158], the “EC50 cAMP 0% FBS” value with human GLP-1R worked out at 98.3 nM; in the assay with human GIPR it was 30.5 nM.

For the molecule Y[Aib]EGTFTSDYSIYKDKQAA[Aib]KFVNWLLAGGPSSGAPPPS (linker 14-21 via staple K8; not fully specified; reading uncertain) [Conjugate 152], the “EC50 cAMP 0% FBS” value with human GIPR stood at 0.05 nM. In the case of YXEGTFTSDYSIYLDKKAAXEFVKWLLAGGPSSGAPPPS (staple K5 on Lys 17, 24; Aib 2, 20) [Conjugate 139], the “EC50 cAMP 0% FBS” value was 0.061 nM in the assay with human GLP-1R and 0.0026 nM in the assay with human GIPR.

With YXEGTFTSDYSIYLDKKAAXEFVKWLLAGGPSSGAPPPS (staple K4 on Lys 17, 24; Aib 2, 20) [Conjugate 140], the “EC50 cAMP 0% FBS” value with human GLP-1R was 0.034 nM; with human GIPR it was 0.0028 nM. As to SRAHQCSMETRTCDINPAWYTGRGIRPVGRF-NH2 (cysteine pairing not given here) [SEQ ID NO 90], the “GPR10 EC50” value with GPR10 [2] and with GPR10 [1] was 29 nM in each case.
